Assay results: the supplement of paper PMC11780869

System: Bacillus subtilis
Assay: cleaved RNA product abundance (RNA/gDNA barcode ratio) relative to median wild-type variant (ratio to wild type); higher = more accumulation of the downstream cleavage product
Outline: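 Reporter mRNAs (truncated aprE or tetM) carrying barcoded, mutagenized RNase Y cleavage-site windows were made from oligos with a 9% error rate and integrated into the B. subtilis chromosome. Cultures grew in LB at 37°C from OD600 0.0003 to 0.3. Cleaved RNA was gel-selected, reverse transcribed and barcode-sequenced alongside genomic DNA barcodes, with UMI collapsing. Cleaved product abundance is the RNA:gDNA barcode ratio per variant, scaled to the median wild-type variant.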

[1] = experiment (reporter, strain, medium): exp 8a: truncated aprE reporter, strain BJT201 with 2% xylose (RNase J1 expressed), cleavage site: glnRA (positions -5 to +31 mutated)
[2] = experiment (reporter, strain, medium): exp 2b: truncated aprE reporter, strain BJT200, cleavage site: cggR-gapA (positions -7 to +36 mutated)
[3] = experiment (reporter, strain, medium): exp 4a: truncated aprE reporter, strain BJT201 with 2% xylose (RNase J1 expressed), cleavage site: cggR-gapA (positions -7 to +36 mutated)

CGACATGTCCCGCTTCTTTCATTAATCCGTTAGCAACTGTTTTGCGATATACATTAACCTTTTAAGAGGAGGAAT
cleaved RNA product abundance [1]: 0.781

CGACATGTCCCGCTTCTTTCATTACTCCGTTACCAACTGTTTTGCTATATACATTTACCTTTTAAGAGGAGGAAT
cleaved RNA product abundance [1]: 0.176

CGACATGTCCCGCTTCTTTCATTAATCCGTTAGAAACTCTTTTGCTATATACATTTACCTTTTAAGAGGAGGAAT
cleaved RNA product abundance [1]: 0.377

ACAGACGAAGGAGCCGCAAAGAAGTTAATAAGGGATTAATAATCCCTCAATATAAATATCTCTCACTTATTTAAA
cleaved RNA product abundance [2]: 0.218
cleaved RNA product abundance [3]: 0.313

ACAGACGAAGGAGCCGCAAAGAAGTTATTAACGGATGAATAATTCCTCAATATAAATATCTCTCACTTATTTAAA
cleaved RNA product abundance [3]: 0.152

ACAGACGAAGGAGCCGCAAAGAAGTTATTAAGAGATGAACAATCCCTCAATATAAATATCTCTCACTTATTTAAA
cleaved RNA product abundance [2]: 0.0784
cleaved RNA product abundance [3]: 0.205

ACAGACGAAGGAGCCGCAACGAAGTTATTAAGGGATGAATAATACCTCAATATAAATATCTCTCACTTATTTAAA
cleaved RNA product abundance [2]: 0.111
cleaved RNA product abundance [3]: 0.18

CGACATGTCCCGCTTCTTTCATTAATCCGTTAGCAACTGTTTTCCTATATACATTTACTTTTTAAGAGGAGGAAT
cleaved RNA product abundance [1]: 0.31

ACAGACGAAGGAGCCGCAAAGAAGTCATTAAGGGATGAATAATCCGTCAATATAAATATCTCTCACTTATTTAAA
cleaved RNA product abundance [2]: 0.124
cleaved RNA product abundance [3]: 0.173

CGACATGTCCCGCTTCTTTCATTAATCCGTTAGCAACTGTTTTGCTATATACCTTTACCTTTTAAGAGGAGGAAT
cleaved RNA product abundance [1]: 0.283

ACAGACGAAGGAGCCGCAATGAAGTTATTAAGGGATGAATAATCTCTCAATATAAATATCTCTCACTTATTTAAA
cleaved RNA product abundance [2]: 0.942
cleaved RNA product abundance [3]: 0.845

ACAGACGAAGGAGCCGCAAAGAAGTTATTAAGGGATGAAGAATCCCTCAATATAAATATCTCTCACTTATTTAAA
cleaved RNA product abundance [2]: 0.653
cleaved RNA product abundance [3]: 0.658
cleaved RNA product abundance (experiment (reporter, strain, medium): exp 6: tetM reporter, strain 168, cleavage site: cggR-gapA (positions -7 to +36 mutated)): 0.732

CGACATGTCCCGCTTCTTTCATTAATCTGTTAGCAACTGTTTTGCTATATACATTTATCTTTTAAGAGGAGGAAT
cleaved RNA product abundance [1]: 0.969

ACAGACGAAGGAGCCGCAAAGAAGTTATTAAGTGATGAATAATCCCTCATTATAAATATCTCTCACTTATTTAAA
cleaved RNA product abundance [2]: 0.0978
cleaved RNA product abundance [3]: 0.151

CGACATGTCCCGCTTCTTTCATTAATCCCTTAGAAACTGTTTTGCTATATACATTTACCTTTTAAGAGGAGGAAT
cleaved RNA product abundance [1]: 0.173

ACAGACGAAGGAGCCGCAAAGTCGTTATTAAGGGATGAATAATCCCTCAATATAAATATCTCTCACTTATTTAAA
cleaved RNA product abundance [3]: 0.9

ACAGACGAAGGAGCCGCAAAGAAGTAATTAAGGGTTGAATAATCCCTCAATATAAATATCTCTCACTTATTTAAA
cleaved RNA product abundance [2]: 0.0812
cleaved RNA product abundance [3]: 0.162

ACAGACGAAGGAGCCGCAAAGAAGTTATTAAGAGATGAATAATCCCTCAATATAAATTTCTCTCACTTATTTAAA
cleaved RNA product abundance [3]: 0.164

CGACATGTCCCGCTTCTTTCATTAATCCGTTAACAACTGTTTTGCTATATACATTTAGCTTTTAAGAGGAGGAAT
cleaved RNA product abundance [1]: 0.204

CGACATGTCCCGCTTCTTTCATTAATCCGTTAGTAACTGTTTTTCTATATACATTTACCTTTTAAGAGGAGGAAT
cleaved RNA product abundance [1]: 0.688

ACAGACGAAGGAGCCGCAAAGAAGTTATGAAGGGATGAATAATCCCACAATATAAATATCTCTCACTTATTTAAA
cleaved RNA product abundance [2]: 0.138

ACAGACGAAGGAGCCGCAAAGAAGATATTAAGGGATGAATAATCCCTCTATATAAATATCTCTCACTTATTTAAA
cleaved RNA product abundance [2]: 0.362
cleaved RNA product abundance [3]: 0.406

ACAGACGAAGGAGCCGCAAAGAAGTTATGAAGGCATGAATAATCCCTCAATATAAATATCTCTCACTTATTTAAA
cleaved RNA product abundance [2]: 0.108
cleaved RNA product abundance [3]: 0.116

ACAGACGAAGGAGCCGCAAAGAAGTGATTACGGGATGAATAATCCCTCAATATAAATATCTCTCACTTATTTAAA
cleaved RNA product abundance [3]: 0.396

CGACATGTCCCGCTTCTTTCATTAACCCTTTAGCAACTGTTTTGCTATATACATTTACCTTTTAAGAGGAGGAAT
cleaved RNA product abundance [1]: 0.181

ACAGACGAAGGAGCCGCAAAGAAGTTATTAAGGGATGAATAATCCATCAACATAAATATCTCTCACTTATTTAAA
cleaved RNA product abundance [2]: 0.164

ACAGACGAAGGAGCCGCAAAGAAGTTATTAATGGATGAATAATCCCTCGATATAAATATCTCTCACTTATTTAAA
cleaved RNA product abundance [2]: 0.0785
cleaved RNA product abundance [3]: 0.116

ACAGACGAAGGAGCCGCAAATAAGTTAGTAAGGGATGAATAATCCCTCAATATAAATATCTCTCACTTATTTAAA
cleaved RNA product abundance [2]: 0.305
cleaved RNA product abundance [3]: 0.549

ACAGACGAAGGAGCCGCAAAGGAGTTATTAAGGGATGAATAATTCCTCAATATAAATATCTCTCACTTATTTAAA
cleaved RNA product abundance [2]: 0.328

ACAGACGAAGGAGCCGCAAATTAGTTATTAAGGGATGAATAATCCCTCAATATAAATATCTCTCACTTATTTAAA
cleaved RNA product abundance [3]: 0.919

ACAGACGAAGGAGCCGCAAAGAAGTTATAAAGGGATGAATAATCTCTCAATATAAATATCTCTCACTTATTTAAA
cleaved RNA product abundance [3]: 0.338

ACAGACGAAGGAGCCGCAAAGAAGTTATTAAGGGATGATTAAACCCTCAATATAAATATCTCTCACTTATTTAAA
cleaved RNA product abundance [3]: 0.362

ACAGACGAAGGAGCCGCAAAGAAGTTATTTAGGGATGAATAATCCATCAATATAAATATCTCTCACTTATTTAAA
cleaved RNA product abundance [3]: 0.34

ACAGACGAAGGAGCCGCAAAGAAGTTATTAAGGGAAGAATAATCCCTTAATATAAATATCTCTCACTTATTTAAA
cleaved RNA product abundance [2]: 1.05
cleaved RNA product abundance [3]: 0.952

ACAGACGAAGGAGCCGCAAATAAGTTATTAAGGGATGAATCATCCCTCAATATAAATATCTCTCACTTATTTAAA
cleaved RNA product abundance [2]: 0.769
cleaved RNA product abundance [3]: 0.899

ACAGACGAAGGAGCCGCAAAGAAGTTATTAAGAGCTGAATAATCCCTCAATATAAATATCTCTCACTTATTTAAA
cleaved RNA product abundance [2]: 0.0922

ACAGACGAAGGAGCCGCAAAGATGTTATTAATGGATGAATAATCCCTCAATATAAATATCTCTCACTTATTTAAA
cleaved RNA product abundance [2]: 0.131
cleaved RNA product abundance [3]: 0.135

ACAGACGAAGGAGCCGCAAAGAATTTATTAAGGGATGAATAATCCCTCAATAGAAATATCTCTCACTTATTTAAA
cleaved RNA product abundance [3]: 0.0925

ACAGACGAAGGAGCCGCAAAGAAGTTATTAAGGGATAAATATTCCCTCAATATAAATATCTCTCACTTATTTAAA
cleaved RNA product abundance [2]: 0.755
cleaved RNA product abundance [3]: 1.01

CGACATGTCCCGCTTCTTTCATTAATCCGTTAGCACCTGTTTTGCTATATACAATTACCTTTTAAGAGGAGGAAT
cleaved RNA product abundance [1]: 0.867

CGACATGTCCCGCTTCTTTCATTAATCCGTTAGCAACTGTTTTGCTATATACATTTTCCTTTTAAGAGGAGGAAT
cleaved RNA product abundance [1]: 0.416

ACAGACGAAGGAGCCGCAAAGAAGTTACTAAAGGATGAATAATCCCTCAATATAAATATCTCTCACTTATTTAAA
cleaved RNA product abundance [2]: 0.0999
cleaved RNA product abundance [3]: 0.171

ACAGACGAAGGAGCCGCAAAGAAGTTATTAAGGGACGAATAATCCATCAATATAAATATCTCTCACTTATTTAAA
cleaved RNA product abundance [3]: 0.0728

ACAGACGAAGGAGCCGCAAAGAAGTTATTAAGGGATGAATAATCCCTCAATTTATATATCTCTCACTTATTTAAA
cleaved RNA product abundance [3]: 0.2

ACAGACGAAGGAGCCGCAAAGAAGTTATTAAGGAATGAATAATCCCTCAATATACATATCTCTCACTTATTTAAA
cleaved RNA product abundance [3]: 0.118

CGACATGTCCCGCTTCTTTCATTAATCCGTCAACAACTGTTTTGCTATATACATTTACCTTTTAAGAGGAGGAAT
cleaved RNA product abundance [1]: 0.384
